± gives the standard deviation of the averaged measurements.
B1: library; a variant is named by its letters at N, in order (parent)
chain: GCUGUCACCGAGAAACUGUGAAGUAUAUCUUAAACCUGGGCACUUAAAAGAUAUAUGGAGUUAGUAGUGCAACCUGCUCGGUCUGAUGAGUCCNNNNNNGGACGAAACAGC

Columns and labels:
cyclic di-GMP [1] = variants of: B1; experiment: FACS-Seq fitted mean relative fluorescence mCherry/BFP without ligand (log10 relative fluorescence); HEK293T; ligand: cyclic di-GMP (c-di-GMP-II aptamer); higher = higher reporter protein expression; conditions: ligand present: no
In short: (§1)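 To measure fluorescence, a normal distribution was fitted to read counts across sorted bins. The reporter libraries were HEK293T cells transduced by lentivirus with mCherry under ribozyme-switch control and an EF1α-BFP marker, enriched and then kept with or without ligand for 48 h. Sorting used 6 mCherry/BFP bins, and bin genomic DNA was PCR-amplified and sequenced on MiSeq. Fitted means of log10(mCherry/BFP) were scaled to five spiked-in control ribozymes.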

cyclic di-GMP [2] = variants of: B1; experiment: normalized RNA/DNA level without ligand (relative to sTRSVctl = 100) (log10 (% of sTRSVctl)); HEK293T; ligand: cyclic di-GMP (c-di-GMP-II aptamer); higher = less ribozyme self-cleavage, higher mRNA level; conditions: reporter: mCherry (pCS4076), ligand present: no
Method: (§2)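 Hammerhead (sTRSV) ribozyme switch libraries with a ligand aptamer grafted on stem I and a randomized N4-6 loop II, cloned into the 3' UTR of mCherry and transiently transfected into HEK293T cells; RNA-Seq 72 h post transfection with ligand added 1 h before transfection; RNA read count / plasmid DNA read count normalized to the non-cleaving sTRSVctl (x100), log10; sequences with >100 DNA reads. FACS-Seq: lentiviral library sorted into 6 bins after 48 h ligand, log-normal fit mean of mCherry/BFP scaled to controls. Printed sequences are partial switch sequences.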

cyclic di-GMP [3] = variants of: B1; experiment: FACS-Seq fitted mean relative fluorescence mCherry/BFP with ligand (log10 relative fluorescence); HEK293T; ligand: cyclic di-GMP (c-di-GMP-II aptamer); ligand concentration (+) FACS-Seq: 1 mM; higher = higher reporter protein expression; conditions: ligand present: yes
In short: as §1

cyclic di-GMP [4] = variants of: B1; experiment: normalized RNA/DNA level with ligand (relative to sTRSVctl = 100) (log10 (% of sTRSVctl)); HEK293T; ligand: cyclic di-GMP (c-di-GMP-II aptamer); ligand concentration (+) RNA-Seq: 1 mM; higher = less ribozyme self-cleavage, higher mRNA level; conditions: reporter: mCherry (pCS4076), ligand present: yes
Method: as §2

GCUGUCACCGAGAAACUGUGAAGUAUAUCUUAAACCUGGGCACUUAAAAGAUAUAUGGAGUUAGUAGUGCAACCUGCUCGGUCUGAUGAGUCCGAUGGAGGACGAAACAGC [GAUGGA]
FACS-Seq fitted mean (log10) (cyclic di-GMP [1]): -0.376 ± 0.014
normalized RNA/DNA level without ligand (log10) (cyclic di-GMP [2]): 1.42 ± 0.14
FACS-Seq fitted mean (log10) (cyclic di-GMP [3]): -0.11 ± 0.031
normalized RNA/DNA level with ligand (log10) (cyclic di-GMP [4]): 1.61 ± 0.097

GCUGUCACCGAGAAACUGUGAAGUAUAUCUUAAACCUGGGCACUUAAAAGAUAUAUGGAGUUAGUAGUGCAACCUGCUCGGUCUGAUGAGUCCUAUGUAGGACGAAACAGC [UAUGUA]
FACS-Seq fitted mean (log10) (cyclic di-GMP [1]): -0.622 ± 0.023
normalized RNA/DNA level without ligand (log10) (cyclic di-GMP [2]): 1.668 ± 0.0069
FACS-Seq fitted mean (log10) (cyclic di-GMP [3]): -0.405 ± 0.035
normalized RNA/DNA level with ligand (log10) (cyclic di-GMP [4]): 1.84 ± 0.08

GCUGUCACCGAGAAACUGUGAAGUAUAUCUUAAACCUGGGCACUUAAAAGAUAUAUGGAGUUAGUAGUGCAACCUGCUCGGUCUGAUGAGUCCAAUUAAGGACGAAACAGC [AAUUAA]
FACS-Seq fitted mean (log10) (cyclic di-GMP [1]): -0.5829 ± 0.0026
normalized RNA/DNA level without ligand (log10) (cyclic di-GMP [2]): 1.51 ± 0.063
FACS-Seq fitted mean (log10) (cyclic di-GMP [3]): -0.251 ± 0.11
normalized RNA/DNA level with ligand (log10) (cyclic di-GMP [4]): 1.72 ± 0.074

GCUGUCACCGAGAAACUGUGAAGUAUAUCUUAAACCUGGGCACUUAAAAGAUAUAUGGAGUUAGUAGUGCAACCUGCUCGGUCUGAUGAGUCCGAUUAAGGACGAAACAGC [GAUUAA]
FACS-Seq fitted mean (log10) (cyclic di-GMP [1]): -0.0108 ± 0.066
normalized RNA/DNA level without ligand (log10) (cyclic di-GMP [2]): 1.55 ± 0.057
FACS-Seq fitted mean (log10) (cyclic di-GMP [3]): 0.211 ± 0.1
normalized RNA/DNA level with ligand (log10) (cyclic di-GMP [4]): 1.74 ± 0.087

GCUGUCACCGAGAAACUGUGAAGUAUAUCUUAAACCUGGGCACUUAAAAGAUAUAUGGAGUUAGUAGUGCAACCUGCUCGGUCUGAUGAGUCCUAUUAAGGACGAAACAGC [UAUUAA]
FACS-Seq fitted mean (log10) (cyclic di-GMP [1]): -0.387 ± 0.054
normalized RNA/DNA level without ligand (log10) (cyclic di-GMP [2]): 1.7 ± 0.039
FACS-Seq fitted mean (log10) (cyclic di-GMP [3]): -0.126 ± 0.13
normalized RNA/DNA level with ligand (log10) (cyclic di-GMP [4]): 1.87 ± 0.12

GCUGUCACCGAGAAACUGUGAAGUAUAUCUUAAACCUGGGCACUUAAAAGAUAUAUGGAGUUAGUAGUGCAACCUGCUCGGUCUGAUGAGUCCAAUGGGGGACGAAACAGC [AAUGGG]
FACS-Seq fitted mean (log10) (cyclic di-GMP [1]): -0.71 ± 0.015
normalized RNA/DNA level without ligand (log10) (cyclic di-GMP [2]): 1.4 ± 0.11
FACS-Seq fitted mean (log10) (cyclic di-GMP [3]): -0.453 ± 0.035
normalized RNA/DNA level with ligand (log10) (cyclic di-GMP [4]): 1.57 ± 0.076

GCUGUCACCGAGAAACUGUGAAGUAUAUCUUAAACCUGGGCACUUAAAAGAUAUAUGGAGUUAGUAGUGCAACCUGCUCGGUCUGAUGAGUCCAAUGGCGGACGAAACAGC [AAUGGC]
FACS-Seq fitted mean (log10) (cyclic di-GMP [1]): -0.236 ± 0.066
normalized RNA/DNA level without ligand (log10) (cyclic di-GMP [2]): 1.65 ± 0.033
FACS-Seq fitted mean (log10) (cyclic di-GMP [3]): 0.153 ± 0.011
normalized RNA/DNA level with ligand (log10) (cyclic di-GMP [4]): 1.81 ± 0.061

GCUGUCACCGAGAAACUGUGAAGUAUAUCUUAAACCUGGGCACUUAAAAGAUAUAUGGAGUUAGUAGUGCAACCUGCUCGGUCUGAUGAGUCCAAUGGAGGACGAAACAGC [AAUGGA]
FACS-Seq fitted mean (log10) (cyclic di-GMP [1]): -0.46 ± 0.012
normalized RNA/DNA level without ligand (log10) (cyclic di-GMP [2]): 1.36 ± 0.11
FACS-Seq fitted mean (log10) (cyclic di-GMP [3]): -0.114 ± 0.0052
normalized RNA/DNA level with ligand (log10) (cyclic di-GMP [4]): 1.55 ± 0.066

GCUGUCACCGAGAAACUGUGAAGUAUAUCUUAAACCUGGGCACUUAAAAGAUAUAUGGAGUUAGUAGUGCAACCUGCUCGGUCUGAUGAGUCCAAUGUGGGACGAAACAGC [AAUGUG]
FACS-Seq fitted mean (log10) (cyclic di-GMP [1]): 0.000386 ± 0.089
normalized RNA/DNA level without ligand (log10) (cyclic di-GMP [2]): 1.58 ± 0.051
FACS-Seq fitted mean (log10) (cyclic di-GMP [3]): 0.206 ± 0.026
normalized RNA/DNA level with ligand (log10) (cyclic di-GMP [4]): 1.76 ± 0.09

GCUGUCACCGAGAAACUGUGAAGUAUAUCUUAAACCUGGGCACUUAAAAGAUAUAUGGAGUUAGUAGUGCAACCUGCUCGGUCUGAUGAGUCCAAUGUUGGACGAAACAGC [AAUGUU]
FACS-Seq fitted mean (log10) (cyclic di-GMP [1]): -0.4781 ± 0.0039
normalized RNA/DNA level without ligand (log10) (cyclic di-GMP [2]): 1.66 ± 0.034
FACS-Seq fitted mean (log10) (cyclic di-GMP [3]): -0.144 ± 0.16
normalized RNA/DNA level with ligand (log10) (cyclic di-GMP [4]): 1.82 ± 0.076

GCUGUCACCGAGAAACUGUGAAGUAUAUCUUAAACCUGGGCACUUAAAAGAUAUAUGGAGUUAGUAGUGCAACCUGCUCGGUCUGAUGAGUCCUAUGGUGGACGAAACAGC [UAUGGU]
FACS-Seq fitted mean (log10) (cyclic di-GMP [1]): -0.169 ± 0.095
normalized RNA/DNA level without ligand (log10) (cyclic di-GMP [2]): 1.569 ± 0.014
FACS-Seq fitted mean (log10) (cyclic di-GMP [3]): 0.0872 ± 0.053
normalized RNA/DNA level with ligand (log10) (cyclic di-GMP [4]): 1.76 ± 0.11

GCUGUCACCGAGAAACUGUGAAGUAUAUCUUAAACCUGGGCACUUAAAAGAUAUAUGGAGUUAGUAGUGCAACCUGCUCGGUCUGAUGAGUCCCAUUAAGGACGAAACAGC [CAUUAA]
FACS-Seq fitted mean (log10) (cyclic di-GMP [1]): -0.604 ± 0.025
normalized RNA/DNA level without ligand (log10) (cyclic di-GMP [2]): 1.26 ± 0.11
FACS-Seq fitted mean (log10) (cyclic di-GMP [3]): -0.31552 ± 2.8e-05
normalized RNA/DNA level with ligand (log10) (cyclic di-GMP [4]): 1.46 ± 0.12

GCUGUCACCGAGAAACUGUGAAGUAUAUCUUAAACCUGGGCACUUAAAAGAUAUAUGGAGUUAGUAGUGCAACCUGCUCGGUCUGAUGAGUCCGAUGUAGGACGAAACAGC [GAUGUA]
FACS-Seq fitted mean (log10) (cyclic di-GMP [1]): -0.456 ± 0.056
normalized RNA/DNA level without ligand (log10) (cyclic di-GMP [2]): 1.662 ± 0.0051
FACS-Seq fitted mean (log10) (cyclic di-GMP [3]): -0.166 ± 0.016
normalized RNA/DNA level with ligand (log10) (cyclic di-GMP [4]): 1.77 ± 0.11

— the supplement of paper PMC6757056
